The values that follow come from ChEMBL document CHEMBL2073859, “Transport of 7-ethyl-10-hydroxycamptothecin (SN-38) by breast cancer resistance protein ABCG2 in human lung cancer cells” (Biochem Biophys Res Commun, 2001).

Substrate in data set [1]: CCc1c2c(nc3ccc(OC[C@@H]4O[C@H](C(=O)O)[C@@H](O)[C@H](O)[C@H]4O)cc13)-c1cc3c(c(=O)n1C2)COC(=O)[C@]3(O)CC
As to the kind of experiment: (§1) TP_TRANSPORTER: uptake in membrane vesicle from PC-6/SN2-5H cells. Format: functional, cell membranes.

Substrate in data set [2]: CCc1c2c(nc3ccc(O)cc13)-c1cc3c(c(=O)n1C2)COC(=O)[C@]3(O)CC
The data set is described as §1. Format: functional, cell membranes.

B1: Broad substrate specificity ATP-binding cassette transporter ABCG2 (Homo sapiens) (protein)
chain: MSSSNVEVFIPVSQGNTNGFPATASNDLKAFTEGAVLSFHNICYRVKLKSGFLPCRKPVEKEILSNINGIMKPGLNAILGPTGGGKSSLLDVLAARKDPSGLSGDVLINGAPRPANFKCNSGYVVQDDVVMGTLTVRENLQFSAALRLATTMTNHEKNERINRVIQELGLDKVADSKVGTQFIRGVSGGERKRTSIGMELITDPSILFLDEPTTGLDSSTANAVLLLLKRMSKQGRTIIFSIHQPRYSIFKLFDSLTLLASGRLMFHGPAQEALGYFESAGYHCEAYNNPADFFLDIINGDSTAVALNREEDFKATEIIEPSKQDKPLIEKLAEIYVNSSFYKETKAELHQLSGGEKKKKITVFKEISYTTSFCHQLRWVSKRSFKNLLGNPQASIAQIIVTVVLGLVIGAIYFGLKNDSTGIQNRAGVLFFLTTNQCFSSVSAVELFVVEKKLFIHEYISGYYRVSSYFLGKLLSDLLPMRMLPSIIFTCIVYFMLGLKPKADAFFVMMFTLMMVAYSASSMALAIAAGQSVVSVATLLMTICFVFMMIFSGLLVNLTTIASWLSWLQYFSIPRYGFTALQHNEFLGQNFCPGLNATGNNPCNYATCTGEEYLVKQGIDLSPWGLWKNHVALACMIVIFLTIAYLKLLFLKKYS
Take B1: the Michaelis-Menten constant (Km) in data set [1] amounted to 26 µM; in data set [2] it was 4 µM.

As a reminder, the Km is the substrate concentration at which the rate is half of its maximum.
